Results taken from PMC11834968 (RSC Chemical Biology, 2025).
Each block holds one binder with its values, some of them ahead of it.

Key:
[1] = molecular target: Human recombinant fibroblast activation protein alpha (human, UniProt Q12884, glycosylated (sites not given)); test: cross-linking + other: mass photometry
[2] = molecular target: Biotinylated dipeptidyl peptidase IV (DPP4) (Homo sapiens, UniProt P27487, biotin (site not given)); test: BLI
Sequence of Biotinylated dipeptidyl peptidase IV (DPP4) (P27487 39-766): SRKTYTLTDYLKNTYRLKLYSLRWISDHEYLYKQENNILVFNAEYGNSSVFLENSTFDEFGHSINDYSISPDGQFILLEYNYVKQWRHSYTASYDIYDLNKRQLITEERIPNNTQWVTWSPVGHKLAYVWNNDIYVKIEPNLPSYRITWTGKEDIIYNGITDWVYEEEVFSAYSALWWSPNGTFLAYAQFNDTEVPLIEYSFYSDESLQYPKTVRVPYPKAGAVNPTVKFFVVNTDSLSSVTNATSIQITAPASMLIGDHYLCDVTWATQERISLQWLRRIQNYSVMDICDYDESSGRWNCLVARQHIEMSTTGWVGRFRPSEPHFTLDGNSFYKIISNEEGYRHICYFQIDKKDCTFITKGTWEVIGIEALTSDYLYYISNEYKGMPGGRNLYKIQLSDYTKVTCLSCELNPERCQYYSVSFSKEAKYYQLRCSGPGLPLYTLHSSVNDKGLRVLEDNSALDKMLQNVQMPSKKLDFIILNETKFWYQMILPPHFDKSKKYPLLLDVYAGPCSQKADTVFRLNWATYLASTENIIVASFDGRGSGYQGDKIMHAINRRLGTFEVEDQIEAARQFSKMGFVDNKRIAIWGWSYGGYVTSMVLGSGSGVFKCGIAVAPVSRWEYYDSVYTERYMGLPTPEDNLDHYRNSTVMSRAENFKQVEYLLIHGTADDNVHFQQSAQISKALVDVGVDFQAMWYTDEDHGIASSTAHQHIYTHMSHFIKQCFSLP

Sequence of Human recombinant fibroblast activation protein alpha (Q12884 27-760): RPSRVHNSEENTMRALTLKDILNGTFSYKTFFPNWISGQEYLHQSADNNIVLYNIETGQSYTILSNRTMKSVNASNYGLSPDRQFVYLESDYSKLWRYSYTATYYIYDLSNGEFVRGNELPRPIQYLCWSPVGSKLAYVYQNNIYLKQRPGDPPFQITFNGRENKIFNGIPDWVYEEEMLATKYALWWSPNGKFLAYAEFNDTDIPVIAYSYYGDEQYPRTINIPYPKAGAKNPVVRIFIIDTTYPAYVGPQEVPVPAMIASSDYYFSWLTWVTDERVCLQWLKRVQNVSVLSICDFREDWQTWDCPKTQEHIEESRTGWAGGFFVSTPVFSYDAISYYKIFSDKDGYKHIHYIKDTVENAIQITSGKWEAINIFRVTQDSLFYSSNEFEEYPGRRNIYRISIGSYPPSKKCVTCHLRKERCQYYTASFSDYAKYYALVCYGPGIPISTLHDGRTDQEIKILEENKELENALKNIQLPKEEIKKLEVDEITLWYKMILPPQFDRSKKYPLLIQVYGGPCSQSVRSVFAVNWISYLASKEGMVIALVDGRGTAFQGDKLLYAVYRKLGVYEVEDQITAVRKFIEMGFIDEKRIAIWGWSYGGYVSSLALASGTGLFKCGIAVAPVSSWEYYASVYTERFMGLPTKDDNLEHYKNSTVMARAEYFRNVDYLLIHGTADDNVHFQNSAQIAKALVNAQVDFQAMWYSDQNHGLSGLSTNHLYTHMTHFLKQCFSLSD

stoichiometry N [1]: 1
B1: SUMO-I3 (single domain antibody I3 fused to an N-terminal 6X His-SUMO-FLAG tag) (VHH)
VHH: EVQLVESGGGLVQPGGSLRLSCAASGFTFSSYAMSWVRQAPGKGLEWVSAINSGGGSTSYADSVKGRFTISRDNAKNTLYLQMNSLKPEDTAVYYCAKARTGWSLAVPSFGSWGQGTQVTVSS

binding result [2]: no binding
B2: MBP-I3 (single domain antibody I3 with N-terminal MBP fusion and C-terminal 6X His-tag) (VHH)
VHH: B1 VHH
